Test results from publication PMC11831459, “Lactylation of Histone H3k18 and Egr1 Promotes Endothelial Glycocalyx Degradation in Sepsis‐Induced Acute Lung Injury” (Advanced Science, 2024).

Biological target: T1, His-EGR1 (mouse, UniProt P08046 1-533)
T1 construct: Early growth response protein 1 (EGR1), mouse; plasmid pET28a-EGR1; also called His-tagged EGR1; source: E. coli BL21(DE3), purified (Ni-NTA)
Test: pull-down; GST pull-down with affinity purified proteins; GST bait on GSH magnetic beads (BersinBio GST-pull down kit), His-EGR1 as prey; SDS-PAGE or Western blot
Conditions: both partners purified

T1 sequence (P08046 whole entry): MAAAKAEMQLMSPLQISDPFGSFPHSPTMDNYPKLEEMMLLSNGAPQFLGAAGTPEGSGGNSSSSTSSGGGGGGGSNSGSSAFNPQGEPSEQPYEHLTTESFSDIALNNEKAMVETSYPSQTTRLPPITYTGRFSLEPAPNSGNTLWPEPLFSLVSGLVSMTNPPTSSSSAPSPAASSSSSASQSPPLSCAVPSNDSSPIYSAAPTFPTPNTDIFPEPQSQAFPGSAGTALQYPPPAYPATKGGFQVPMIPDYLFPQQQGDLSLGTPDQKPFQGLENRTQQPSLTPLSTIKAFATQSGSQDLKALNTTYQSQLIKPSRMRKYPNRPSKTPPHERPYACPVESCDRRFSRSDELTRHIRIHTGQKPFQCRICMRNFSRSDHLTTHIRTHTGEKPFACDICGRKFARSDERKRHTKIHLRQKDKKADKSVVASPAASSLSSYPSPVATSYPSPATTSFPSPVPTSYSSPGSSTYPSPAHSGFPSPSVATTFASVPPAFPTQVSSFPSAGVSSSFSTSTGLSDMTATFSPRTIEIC

B1: GST-KAT2B-WT (enzyme, mouse, UniProt Q9JHD1 1-813, looked up)
chain: MAEAGGAGSPALPPAPPHGSPRTLATAAGSSASCGPATAVAAAGTAEGPGGGGSARIAVKKAQLRSAPRAKKLEKLGVYSACKAEESCKCNGWKNPNPSPTPPRGDLQQIIVSLTESCRSCSHALAAHVSHLENVSEEEMDRLLGIVLDVEYLFTCVHKEEDADTKQVYFYLFKLLRKSILQRGKPVVEGSLEKKPPFEKPSIEQGVNNFVQYKFSHLPSKERQTTIELAKMFLNRINYWHLEAPSQRRLRSPNDDISGYKENYTRWLCYCNVPQFCDSLPRYETTKVFGRTLLRSVFTIMRRQLLEQARQEKDKLPLEKRTLILTHFPKFLSMLEEEVYSQNSPIWDQDFLSASSRTSPLGIQTVISPPVTGTALFSSNSTSHEQINGGRTSPGCRGSSGLEANPGEKRKMNNSHAPEEAKRSRVMGDIPVELINEVMSTITDPAGMLGPETNFLSAHSARDEAARLEERRGVIEFHVVGNSLNQKPNKKILMWLVGLQNVFSHQLPRMPKEYITRLVFDPKHKTLALIKDGRVIGGICFRMFPSQGFTEIVFCAVTSNEQVKGYGTHLMNHLKEYHIKHEILNFLTYADEYAIGYFKKQGFSKEIKIPKTKYVGYIKDYEGATLMGCELNPQIPYTEFSVIIKKQKEIIKKLIERKQAQIRKVYPGLSCFKDGVRQIPIESIPGIRETGWKPSGKEKSKEPKDPEQLYSTLKNILQQVKNHPNAWPFMEPVKRTEAPGYYEVIRFPMDLKTMSERLRNRYYVSKKLFMADLQRVFTNCKEYNPPESEYYKCASILEKFFFSKIKEAGLIDK
notes: Histone acetyltransferase KAT2B, mouse; plasmid pGEX-4T-1-KAT2B; source: E. coli BL21(DE3), purified (glutathione column)
binding result: binds
